Data reported in the supplement of paper PMC12042874.
± gives the uncertainty stated by the source.

assay: amyloid nucleation score (Sup35N fusion, yeast selection) (log enrichment); library NNK3; higher = more nucleation; inactive = no reads after selection
Method in brief: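 Peptides of 20 random codons fused to Sup35N were expressed in psi-negative yeast, induced 24 hours with 100 μM copper sulfate, then grown 7 days at 30°C on medium lacking adenine and uracil. Input and output plasmid inserts were Illumina-sequenced. Nucleation score is the DiMSum log enrichment of output over input reads, centred on the mode score of non-aggregating sequences, excluding sequences with under 100 input reads. Random libraries had three technical output replicates.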

Row | Substance | amyloid nucleation score
1 | RCFGKIC | inactive
2 | RCFRTLIRENMKLANTSDMT | inactive
3 | RCHISERD | inactive
4 | RCICTRFLVPWDSIA | inactive
5 | RCLAPGCRIVNRFLSINYKS | inactive
6 | RCNGTL | inactive
7 | RCVSFTLKIGLIFKQTPSCR | inactive
8 | RCWLKRAWVWSQKVSDRSTW | inactive
9 | RCYNHFHSI | inactive
10 | RDDFYLNFNFNFVRHGTRDS | 1.26 ± 0.15
11 | RDFAR | inactive
12 | RDIASQC | -0.698 ± 0.98
13 | RDLMEGRTTLWMNSGTAIWA | inactive
14 | RDPSQNTSKHLSNVAFISLY | inactive
15 | RDQSVCGLSRGVIRVVGSCG | inactive
16 | RDRGKY | inactive
17 | RDRPKFII | inactive
18 | RDVWDYSREHLYNDDFLIGA | -0.422 ± 0.75
19 | RDYKLVRHHSHKDVLSCILW | inactive
20 | REVGDQMIDLSRSYVQSTVG | inactive
21 | REVVRDWERCY | inactive
22 | RFAVTSVMLTSETRDGFDHA | inactive
23 | RFEFDQVFMF | 1.32 ± 0.13

Row | Substance | amyloid nucleation score
24 | RFFAIL | inactive
25 | RFGFSVKFMYDDGMSAVCTS | inactive
26 | RFGSVCPDL | inactive
27 | RFGVSKLARAS | inactive
28 | RFIGFYPLLQGKNAASGRVL | inactive
29 | RFILDVMRVAAGFMVSK | inactive
30 | RFIVS | inactive
31 | RFKVT | inactive
32 | RFLFNKRL | -0.029 ± 0.81
33 | RFLFSCCVGL | 2.3 ± 0.06
34 | RFNMCGEYGKVHGLGW | inactive
35 | RFPEAVPNKWSGPPTFNPHE | inactive
36 | RFSRRYMHGFS | inactive
37 | RFSTGDIWRYPDGNMFWTSL | inactive
38 | RFSVNGNR | inactive
39 | RFSYWGKDRSRVSNL | inactive
40 | RFYKRICLLYPTRSEGESGF | inactive
41 | RGAPVFCFYKWFSTATCSIA | inactive
42 | RGKNVAWWVTSSTKSYSAK | 0.304 ± 0.23
43 | RGLYKVD | inactive
44 | RGSCRLVNLEPCRIM | inactive
45 | RGSGWRTYVCTGSYALRV | inactive
46 | RGSSTIYNETGLLGRLKGM | inactive

Row | Substance | amyloid nucleation score
47 | RGTKAYMGVVCSTPTIFCPN | inactive
48 | RHGEIYAHYKMFVCRLDEVR | inactive
49 | RHGVTMRLSCQTWHFAFHLR | inactive
50 | RHMFVSSSKRWKFSSNTYRT | inactive
51 | RHSILVSYFHWWFRDWKPFW | inactive
52 | RICSQMLFFRYESRHFWSFV | inactive
53 | RIGAYYPMFIFAVLVGSALG | inactive
54 | RIHDNVPSIVWFWEPPHPRH | inactive
55 | RIMGSPQSDS | inactive
56 | RINMELLWIFGGSTWFINRG | 1.93 ± 0.084
57 | RIPTLIFRLILIMFHDFDFQ | inactive
58 | RIRCVMFGGRKSRRKLDSVV | inactive
59 | RIRKRQCWSFVLLLYCGCVT | inactive
60 | RISINGFNNLNYLLS | 1.39 ± 0.1
61 | RITKRRHSVIPCP | inactive
62 | RIVNS | inactive
63 | RKHLRPQSMRVDSGETLRVL | inactive
64 | RKLGLEYGITMSCASLLALR | inactive
65 | RKLKHLS | inactive
66 | RKLLCWTRDGRIWMRVEGTA | inactive
67 | RKLTCTSGLA | inactive
68 | RKMDLVDKSMSTIGYLAHHG | -0.63 ± 0.82
69 | RKMMCKWLCNIKGYIIVV | inactive

Row | Substance | amyloid nucleation score
70 | RKNVRMMA | inactive
71 | RKSHD | inactive
72 | RKYSVG | inactive
73 | RLCSFTRYLNGATSANNVKL | inactive
74 | RLCSVGLAVYYMACSEYKMR | 0.103 ± 0.29
75 | RLDGCM | inactive
76 | RLFKNGSMGRSYGSVYRPV | -0.111 ± 0.81
77 | RLGMWVFWCRL | inactive
78 | RLHIVETLSYLNACWPDFSG | inactive
79 | RLHVRCNCDLSDGVPRAVCE | 0.599 ± 0.23
80 | RLLSKVSNFREYTSSSVPDV | inactive
81 | RLRCLYTSEISVGIGNNWVS | inactive
82 | RLSQCRLLVFDGTQVFMCCV | 2.01 ± 0.077
83 | RLTGCRWDSPVTKVNIRWVY | inactive
84 | RLTTLPIRSPFTLGYTFARK | inactive
85 | RLVAFGRRWDESSKVECMWS | inactive
86 | RLVAVVRCYVLCGKIWGKST | -0.484 ± 0.89
87 | RLVSLSPNLLMYSNVLDYLK | inactive
88 | RLWICVSQILVILVDALILG | inactive
89 | RLWLYR | inactive
90 | RLWYGTYWFT | inactive
91 | RLYDIVCYSTVVL | 1.99 ± 0.074
92 | RLYKKGRGPFHLTPAPRD | inactive

Row | Substance | amyloid nucleation score
93 | RMFLHLTRNKCVRVKKASQE | inactive
94 | RMGIYCGDRFQ | inactive
95 | RMNQIRLPGRCTY | inactive
96 | RNANSNWSRPVLNAWSLNEV | inactive
97 | RNGRKYSIWLVGVSH | inactive
98 | RNMLVAPDSCMASRWYGVHL | inactive
99 | RNSKWWLYLKSARSCYLGWW | inactive
100 | RNSRTVRRDLQINCR | inactive
101 | RNVCMSEVGSVDKSSLLHGN | inactive
102 | RNWLYLFVRRLISWLNKWGK | inactive
103 | RNYDFSKGITVSWRLLHA | inactive
104 | RPLTVKKY | -0.538 ± 1.4
105 | RPMRACRGMEVRGFSSEVSA | inactive
106 | RPRFWICMSYMEQSSDNRRT | 1.37 ± 0.084
107 | RPRRTCWM | inactive
108 | RPVKCSLYMTGQLQRLDGVN | 0.915 ± 0.14
109 | RPWHPLLTSDVVNCWLKIRV | inactive
110 | RQCMKRLWDSCYKKAWIKYV | inactive
111 | RQEFIGWFSTSALSAQFLS | inactive
112 | RQIRPMRTLSGTLGAGDRCH | inactive
113 | RQIVKPASQVILCRCLCTGA | 1.04 ± 0.1
114 | RQQRLRRKPLFWDNQAKANY | 0.211 ± 0.24
115 | RQVSPTVVCSIILSLPFDPC | 0.396 ± 0.22

Row | Substance | amyloid nucleation score
116 | RRAAEKFFNEPTWERHLVSG | inactive
117 | RRELWRLRTVVCTMNLLYYA | inactive
118 | RRFIIPRAVAFTSL | inactive
119 | RRGRPVLCRLHPGRWLRSRR | -0.401 ± 1.8
120 | RRGYLVYFGSTFYYSSNSFW | 0.468 ± 0.19
121 | RRLCKYYLQVKSPCIGHDCQ | inactive
122 | RRLTGFMQVVRKNWVLGELA | 1.04 ± 0.21
123 | RRMLTRTFRG | inactive
124 | RRPVYIIASNLDYMQTSCIT | inactive
125 | RRSISGKVLFTRIQSYLLKF | -0.759 ± 1
126 | RRSKISLS | inactive
127 | RRSNSHYM | inactive
128 | RRSRCVRSVYRFRMSRARPP | inactive
129 | RRTMFPAMIIS | inactive
130 | RSCLCEWWDVGSSVSASTLL | inactive
131 | RSDCNGSSKYLISDHFP | inactive
132 | RSDGRCEYKSWCNVQLKVE | inactive
133 | RSDMTAHDTNDAVQLEPSVE | inactive
134 | RSEPIKVVWVSISQPMDFFC | 2.13 ± 0.077
135 | RSGSMWCLSMLVVHLDELTD | inactive
136 | RSILDM | inactive
137 | RSKLYEISRIRKMGHPHTAE | inactive
138 | RSLAEGFYGAVPEGSVRFRN | inactive

Row | Substance | amyloid nucleation score
139 | RSMQFGVIYAYYHRMAG | inactive
140 | RSMSTGNH | inactive
141 | RSRKLCNPIMILLQVFGNYG | 1.43 ± 0.07
142 | RSSESNIICTTLRYLSVVVY | inactive
143 | RSSPEDPLTSFLGYTGMTAS | inactive
144 | RSTFYIISCRTVDWESVSTR | inactive
145 | RSTWEQ | inactive
146 | RSVKVYLRCSLSNCVILLGT | 2.58 ± 0.049
147 | RSVVEWGS | inactive
148 | RSVVMYALSIFYVRFTANQN | 0.755 ± 0.23
149 | RSWLLSSEFVVVIFSNTEGM | 1.24 ± 0.16
150 | RSYARRSTGILAR | -0.112 ± 0.75
151 | RSYFGMARGAHFSAHFLLFL | inactive
152 | RTFPNTWHAMIFGCVNKPNC | inactive
153 | RTGSHEMLIICFCVTSVL | inactive
154 | RTHGCCSVCNTEFADGVVLS | inactive
155 | RTIFFFLDSMLIYSRAVCRL | inactive
156 | RTLAIRYSSNPLTIRLLQSL | inactive
157 | RTMSSLLFQFDSFLKLIKSE | inactive
158 | RTRCAPLDMVEL | inactive
159 | RTSYLVLMKCYSALDYGVIA | inactive
160 | RTVIGLPASMLLSCDHISFV | inactive
